Source: paper PMC6656915, “The MmpL3 interactome reveals a complex crosstalk between cell envelope biosynthesis and cell elongation and division in mycobacteria” (Scientific Reports, 2019)

T1: MmpL3 from M. tuberculosis, C-terminally hexahistidine-tagged, purified (M. tuberculosis, UniProt P9WJV5 1-944)
T1 chain: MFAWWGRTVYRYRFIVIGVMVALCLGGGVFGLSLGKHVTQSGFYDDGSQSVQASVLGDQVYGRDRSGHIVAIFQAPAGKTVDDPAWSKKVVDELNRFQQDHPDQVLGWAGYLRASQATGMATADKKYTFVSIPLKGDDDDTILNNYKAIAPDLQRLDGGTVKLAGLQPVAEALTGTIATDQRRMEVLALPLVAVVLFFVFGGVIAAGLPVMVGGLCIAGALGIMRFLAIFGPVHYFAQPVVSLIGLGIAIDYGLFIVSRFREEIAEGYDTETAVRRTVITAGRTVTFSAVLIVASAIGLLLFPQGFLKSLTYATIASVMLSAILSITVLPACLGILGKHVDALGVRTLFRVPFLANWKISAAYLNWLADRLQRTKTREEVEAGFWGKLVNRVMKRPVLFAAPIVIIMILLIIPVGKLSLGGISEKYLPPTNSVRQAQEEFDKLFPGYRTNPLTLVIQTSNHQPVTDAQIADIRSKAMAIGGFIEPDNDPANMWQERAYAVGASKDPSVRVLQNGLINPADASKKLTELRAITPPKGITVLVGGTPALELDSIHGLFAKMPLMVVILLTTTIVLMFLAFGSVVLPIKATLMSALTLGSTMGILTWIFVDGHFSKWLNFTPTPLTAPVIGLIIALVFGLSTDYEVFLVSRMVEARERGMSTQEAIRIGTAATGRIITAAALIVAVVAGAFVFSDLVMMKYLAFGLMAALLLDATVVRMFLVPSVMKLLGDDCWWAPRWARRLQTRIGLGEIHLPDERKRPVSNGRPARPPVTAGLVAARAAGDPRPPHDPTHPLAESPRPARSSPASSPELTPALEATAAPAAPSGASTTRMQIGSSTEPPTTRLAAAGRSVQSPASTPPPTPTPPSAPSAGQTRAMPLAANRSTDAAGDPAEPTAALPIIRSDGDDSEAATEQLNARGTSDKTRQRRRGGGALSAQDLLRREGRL

T2: MmpL3 protein from M. tuberculosis, C-terminally hexahistidine-tagged, devoid of gfp fusion (M. tuberculosis, UniProt P9WJV5 1-944)
T2 construct: MmpL3 (Rv0206c), mycolic acid (TMM) transporter of M. tuberculosis; also called MmpL3tb; Rv0206c
T2 sequence: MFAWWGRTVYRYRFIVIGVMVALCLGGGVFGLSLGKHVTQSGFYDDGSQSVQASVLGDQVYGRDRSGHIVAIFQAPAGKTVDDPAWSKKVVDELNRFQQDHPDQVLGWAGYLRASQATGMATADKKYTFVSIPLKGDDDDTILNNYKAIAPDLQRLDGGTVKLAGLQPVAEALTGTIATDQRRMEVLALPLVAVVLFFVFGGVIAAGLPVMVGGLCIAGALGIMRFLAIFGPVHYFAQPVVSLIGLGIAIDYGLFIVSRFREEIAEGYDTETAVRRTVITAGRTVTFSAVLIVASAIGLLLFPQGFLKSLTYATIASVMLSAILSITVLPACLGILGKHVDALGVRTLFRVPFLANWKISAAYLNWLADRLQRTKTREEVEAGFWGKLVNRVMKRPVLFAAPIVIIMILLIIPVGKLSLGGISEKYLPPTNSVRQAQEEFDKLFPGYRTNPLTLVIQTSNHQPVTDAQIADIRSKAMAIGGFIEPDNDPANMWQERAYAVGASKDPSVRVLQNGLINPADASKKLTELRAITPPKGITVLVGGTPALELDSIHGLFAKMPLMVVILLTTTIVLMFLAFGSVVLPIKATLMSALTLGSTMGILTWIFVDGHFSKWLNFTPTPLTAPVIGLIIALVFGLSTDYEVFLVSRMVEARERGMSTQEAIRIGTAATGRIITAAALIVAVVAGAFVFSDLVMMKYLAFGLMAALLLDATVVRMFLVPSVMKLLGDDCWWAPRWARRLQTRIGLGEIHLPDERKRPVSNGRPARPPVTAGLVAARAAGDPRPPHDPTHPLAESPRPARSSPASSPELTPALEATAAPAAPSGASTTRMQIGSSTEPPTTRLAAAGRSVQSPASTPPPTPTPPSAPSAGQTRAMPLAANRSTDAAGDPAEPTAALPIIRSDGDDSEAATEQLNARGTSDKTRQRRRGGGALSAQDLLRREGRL


Key:
[1] = biological target: MmpL3 protein from M. tuberculosis, C-terminally hexahistidine-tagged, devoid of gfp fusion (M. tuberculosis) (UniProt P9WJV5); test: SPR; MmpL3 immobilised on CM5 chip; analytes injected at two-fold increasing concentrations from 0.6 µM up to 10 µM, 10 µL/min for 30 sec, dissociation 180 sec, 25 °C; 20 mM HEPES pH 7.4, 150 mM NaCl, 0.2% Triton X-100 (0.03% DDM instead for AftD); global fit to the 1:1 Langmuir binding model
[2] = biological target: T1, MmpL3 from M. tuberculosis, …; test: SPR
[3] = biological target: T2, MmpL3 protein from M. tuberculosis, …; test: SPR; MmpL3 immobilised on CM5 chip; analytes injected at two-fold increasing concentrations from 0.6 µM up to 10 µM, 10 µL/min for 30 sec, dissociation 180 sec, 25 °C; 20 mM HEPES pH 7.4, 150 mM NaCl, 0.2% Triton X-100 (0.03% DDM instead for AftD); global fit to the 1:1 Langmuir binding model; conditions: both partners purified

Molecule	Kd [1] [nM]	koff [1] [s⁻¹]	kon [1] [M⁻¹ s⁻¹]	Kd [2] [nM]	Kd [3] [nM]	koff [3] [s⁻¹]	kon [3] [M⁻¹ s⁻¹]
AftD from Mycobacterium abscessus (enzyme)	170	0.00335	19400				
AftD from Mycobacterium abscessus, N-terminal 10-histidine tag, purified (natural protein) MTYRLDSSALSRRWLAVAAAVSLLLTFSQSPGQISPDTKLDLAINPLRFAARALNLWSSDLPFGQAQNQAYGYLFPHGAFFSLGHLLGVPAWVTQRLWWALLIVAGFWGLIRVAEALGIGTRGSRIIAAVAFALSPRVLTTLGAISSETLPMMLAPWVLLPLILTFQGRMSPRRAAALSAVAVALMGAVNAVATALACGVAVIWWLAHRPNRTWWRFTAWWIPCLALASTWWIVALLIFGKISPKFLDFIESSGVTTQWTSLTEVLRGTDSWTPFVAPTATAGSSLVTQSAMVIATTMLAAAGMAGLAMRGMPARGRLVAVLLIGLVLLTAGYTGALGSPIAQQIQFFLDDGGTPLRNVHKLEPLIRLPLILGLAHALSRIPLPASVPVRQWLSALARPERNRAVAFAIVLLVALAASTSLAWTGRLVPRGGFDAIPGYWNDTAHWLADHDTGGRALVVPGAPFAIQTWGLTRDEPLQALGQTPWGVRDSIPLTPPETIRAIDSVQQLFAAGRPSDGLADTLREQGISYLVVRNDLDPDTSRSARPILVHHTIEGSPGLTKVAQFGDPVGAGAVEGFVADSDLRPQYPAVEIYAVGANDHDGEPYFTDIDTMPRVAGGPEALLRLNERRRQLNEPPLGPSLLATDAAQAGLRPGPAVVTDTPLARETDYGRVDDHSSAIRAPGDKRRTFNRVPDYPATGVPLVNGSWTGGTITASSSASDSTALPNVAPGTSTAAAIDRDNATSWVSSSLEAALGQWIRIDLDRPITNAILTVTPSATALGAQVRRLEVETDNGTTSVRFDEPGQPLNIALRPGETTWVKVTATGTDDGTSGVQFGVTELSLTQYDAAGFAHTVDLRHSATVPPPPAGDNPLGWDLGSPLQGRSGCAPSPQRLRCAATLSLAPEEPGTFIRTLTVPQPVSLTPRLWVRARPGPQLRDLIQQPGTTVATGDSDVIDPQGSSYAATDGDPGTVWTAPQDSVQRLHLPSLVIKLPKPTAIGAIRLRPSRTEVPAHPKQVAINLGDGPQLRSIDPKADVTELALHPSITDTITVTVTDWTDIIDRTALGFDQLKPPGIAEVIALDADHRPIAPADNAANSKRKITIGCNRGPILALAGRFVPMSITATVRELLDGTVIQATPCDTSPIATGAGIQDVTVNPSQQFIVDGVQLTAAATEPASATMTVAPKGAWGPDRREVTAEPSAHERVLAVPESINPGWAARDAQGHLLTPVRVNGWQQGWVLPAGDGGKITLTFGLNTWYRAGLFGGLALLPILACLALLPARGRTTLPPVAPWCAGPAAGVAVLAALTAISGISGMAVGLAALAFKVWTRWPLRAVTAAGVYLAGGSLLLAGAALSRHPWRSVGGYTGHSWWIQLLALISVASVALAAVRLPSRRCWKRRSASREGDSTSA				172			
CrgA from M. tuberculosis H37Rv with C-terminal hexahistidine tag (natural protein, CrgA (Rv0011c), cell division regulatory protein of M. tuberculosis H37Rv; also called Rv0011c) MPKSKVRKKNDFTVSAVSRTPMKVKVGPSSVWFVSLFIGLMLIGLIWLMVFQLAAIGSQAPTALNWMAQLGPWNYAIAFAFMITGLLLTMRWH					470	0.0015	3180
Rv0207c from M. tuberculosis H37Rv with C-terminal hexahistidine tag (natural protein, Rv0207c, conserved protein of unknown function of M. tuberculosis H37Rv) MSLTEDVTSQTSESLARHSVLAEDLSQDGLTSLGAPGARVLLVWDAPNLDMGLGSILGRRPTALERPRFDALGRWLLARTAEIVAGRPGISTEPEATVFTNIAPGSAEVVRPWVDALRNVGFAVFAKPKVDEDSDVDRDMLAHIDERYREGLAALVVASADGQAFRQPLEAVARSGTPVQVLGFREHASWALASDTLEFVDLEDIAGVFREPLPRIGLDSLPEQGAWLQPFRPLSSLLTSRV				152	150	0.00227	14900
